Data published in paper doi:10.1101/2025.01.07.631698.
Read-outs that look alike come from different tables or passages of the source.

Columns and labels:
[1] = target: microtubules polymerised from porcine tubulin (porcine) (UniProt P02550); test: FRAP
[2] = target: microtubules polymerised from porcine tubulin (porcine) (UniProt P02550); test: FRAP; remark: listed apart in the source

## Anillin-GFP (full-length human anillin, isoform 2, 1087 amino acids) (from UniProt Q9NQW6-2 1-1087) (natural protein)
[1]
  koff: 1.07 s⁻¹
[2]
  koff: 0.26 s⁻¹
